Target: T1, wild-type E. coli ribonucleotide reductase α2 subunit (E. coli, UniProt P00452 1-761)
T1 sequence (looked up): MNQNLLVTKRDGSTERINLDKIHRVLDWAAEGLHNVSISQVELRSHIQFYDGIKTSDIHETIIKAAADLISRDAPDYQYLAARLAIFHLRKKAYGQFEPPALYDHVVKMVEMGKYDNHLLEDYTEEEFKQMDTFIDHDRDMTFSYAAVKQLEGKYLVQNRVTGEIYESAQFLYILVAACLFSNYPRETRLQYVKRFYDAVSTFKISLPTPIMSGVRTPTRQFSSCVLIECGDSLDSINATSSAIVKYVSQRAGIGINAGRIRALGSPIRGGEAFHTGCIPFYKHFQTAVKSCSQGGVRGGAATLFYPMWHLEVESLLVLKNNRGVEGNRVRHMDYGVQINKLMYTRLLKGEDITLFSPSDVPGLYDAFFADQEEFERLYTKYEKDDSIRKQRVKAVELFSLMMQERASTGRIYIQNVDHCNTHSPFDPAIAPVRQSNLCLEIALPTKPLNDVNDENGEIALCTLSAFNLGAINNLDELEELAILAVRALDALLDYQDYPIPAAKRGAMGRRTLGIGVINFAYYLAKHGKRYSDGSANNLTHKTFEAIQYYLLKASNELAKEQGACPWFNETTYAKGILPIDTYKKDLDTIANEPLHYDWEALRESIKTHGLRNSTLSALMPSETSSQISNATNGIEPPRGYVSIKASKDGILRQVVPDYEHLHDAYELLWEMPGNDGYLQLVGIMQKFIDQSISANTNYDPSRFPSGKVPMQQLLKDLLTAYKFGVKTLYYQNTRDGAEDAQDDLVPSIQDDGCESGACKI
Test: competitive inhibition of enzyme activity

Kd: 400 ± 60 nM
B1: [NO2Y122]-β2 (enzyme)
chain: AYTTFSQTKNDQLKEPMFFGQPVNVARYDQQKYDIFEKLIEKQLSFFWRPEEVDVSRDRIDYQALPEHEKHIFISNLKYQTLLDSIQGRSPNVALLPLISIPELETWVETWAFSETIHSRSYTHIIRNIVNDPSVVFDDIVTNEQIQKRAEGISSYYDELIEMTSYWHLLGEGTHTVNGKTVTVSLRELKKKLYLCLMSVNALEAIRFYVSFACSFAFAERELMEGNAKIIRLIARDEALHLTGTQHMLNLLRSGADDPEMAEIAEECKQECYDLFVQAAQQEKDWADYLFRDGSMIGLNKDILCQYVEYITNIRMQAVGLDLPFQTRSNPIPWINTWLVSDNVQVAPQEVEVSSYLVGQIDSEVDTDDLSNFQL
modifications: 3-nitrotyrosine (NO2Y) in place of Y122; diferric cluster (met form, 2.9 Fe/β2)
